According to patent publication US20150025225A1 (SHIONOGI, published 2015):
Changes are numbered by the printed parent chain.

Assays:
[1] = target: T1, human EL-411-459 fragment (human); assay: sandwich ELISA with human EL fragment lysate, as Example 10
T1 construct: Used as HEK293 lysate
T1 chain: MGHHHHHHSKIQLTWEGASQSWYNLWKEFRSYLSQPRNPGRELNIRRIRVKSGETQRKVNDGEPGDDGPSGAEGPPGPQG

[2] = target: T2, rabbit EL-C2 tag (rabbit); assay: cell-based or functional assay
T2 chain: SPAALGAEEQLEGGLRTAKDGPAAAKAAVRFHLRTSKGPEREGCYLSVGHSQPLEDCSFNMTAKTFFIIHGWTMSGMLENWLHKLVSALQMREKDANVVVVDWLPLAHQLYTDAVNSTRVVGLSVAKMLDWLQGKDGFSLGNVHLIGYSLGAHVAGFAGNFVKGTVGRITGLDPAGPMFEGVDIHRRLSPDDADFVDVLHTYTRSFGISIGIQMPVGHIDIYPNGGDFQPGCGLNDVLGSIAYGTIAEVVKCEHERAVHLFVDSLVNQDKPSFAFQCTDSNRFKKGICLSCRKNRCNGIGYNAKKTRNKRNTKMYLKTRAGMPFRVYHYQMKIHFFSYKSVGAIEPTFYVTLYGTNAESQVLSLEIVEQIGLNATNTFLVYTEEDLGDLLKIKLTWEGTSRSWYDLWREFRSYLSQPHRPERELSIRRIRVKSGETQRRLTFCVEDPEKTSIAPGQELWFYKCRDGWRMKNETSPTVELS

[3] = target: T3, human EL[331-459]-mouse EL-C2 tag (human/mouse chimera, UniProt Q9WVG5 21-500 (mouse entry)); assay: cell-based or functional assay
T3 chain: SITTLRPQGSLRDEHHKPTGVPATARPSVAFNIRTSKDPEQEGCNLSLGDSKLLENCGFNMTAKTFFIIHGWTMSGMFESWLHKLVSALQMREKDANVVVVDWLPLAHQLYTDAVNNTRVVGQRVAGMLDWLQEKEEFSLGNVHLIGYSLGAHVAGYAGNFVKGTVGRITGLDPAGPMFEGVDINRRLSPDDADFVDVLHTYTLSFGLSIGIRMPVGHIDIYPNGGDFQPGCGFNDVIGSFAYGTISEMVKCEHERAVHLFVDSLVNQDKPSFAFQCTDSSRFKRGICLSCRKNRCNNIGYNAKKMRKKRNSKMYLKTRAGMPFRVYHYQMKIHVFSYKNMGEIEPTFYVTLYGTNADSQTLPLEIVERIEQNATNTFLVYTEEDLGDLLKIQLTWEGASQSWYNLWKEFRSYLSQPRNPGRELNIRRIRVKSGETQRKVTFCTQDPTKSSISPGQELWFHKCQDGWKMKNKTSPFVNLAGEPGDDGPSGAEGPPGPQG

[4] = target: T4, cynomolgus monkey EL-C2 tag (cynomolgus monkey, UniProt Q9Y5X9 21-500 (human entry), limits assumed); assay: cell-based or functional assay
T4 chain: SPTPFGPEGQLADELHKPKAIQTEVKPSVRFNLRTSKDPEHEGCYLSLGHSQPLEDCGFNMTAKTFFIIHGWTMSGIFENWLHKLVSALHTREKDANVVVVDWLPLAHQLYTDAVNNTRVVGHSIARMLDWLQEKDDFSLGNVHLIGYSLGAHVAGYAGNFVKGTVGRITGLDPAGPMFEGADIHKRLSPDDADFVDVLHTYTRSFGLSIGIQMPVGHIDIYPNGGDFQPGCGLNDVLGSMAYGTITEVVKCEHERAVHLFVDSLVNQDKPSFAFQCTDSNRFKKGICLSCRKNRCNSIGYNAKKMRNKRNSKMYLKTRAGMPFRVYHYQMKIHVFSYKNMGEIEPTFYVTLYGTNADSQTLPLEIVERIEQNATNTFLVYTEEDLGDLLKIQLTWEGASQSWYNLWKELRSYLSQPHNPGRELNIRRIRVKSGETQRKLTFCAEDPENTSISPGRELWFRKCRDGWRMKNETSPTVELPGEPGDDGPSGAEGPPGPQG

[5] = target: T5, Baboon EL-C2 tag (baboon, UniProt Q9Y5X9 21-500 (human entry), limits assumed); assay: cell-based or functional assay
T5 chain: T4 chain with A12E, G141E

[6] = target: T4, cynomolgus monkey EL-C2 tag; assay: ELISA-type titration, A450 against antibody concentration; protocol not described in the text
[7] = target: T4, cynomolgus monkey EL-C2 tag; assay: Biacore SPR; EL heparin extract captured by anti-C2-tag antibody on CM5, antibody as analyte, bivalent fit
Experimental: (§1) The binding affinities of anti-EL antibodies were measured using Biacore. Anti-C2-tag antibody was immobilized on a sensor chip CM5 (GE HealthCare) using amine-coupling and baboon EL heparin extract or cynomolgus monkey heparin extract diluted with HBS-P (GE Healthcare) was added and EL were captured on the sensor chip. Then anti-EL antibodies diluted with HBS-P were added and the binding affinities were calculated by bivalent fitting of BIAevaluation software (FIG. 9A-G).

[8] = target: T5, Baboon EL-C2 tag; assay: as above
Experimental: as §1

[9] = target: T4, cynomolgus monkey EL-C2 tag; assay: Biacore SPR; EL captured by anti-C2-tag antibody, antibody as analyte, bivalent fit; column head prints nM, kd/ka gives M
Experimental: as §1

[10] = target: T5, Baboon EL-C2 tag; assay: as above
Experimental: as §1

binding result [1]: no binding
Neutralizing activity_IC50 [2]: 391 nM
Neutralizing activity_IC50 [3]: 15 nM
Neutralizing activity_IC50 [4]: 5.9 nM
Neutralizing activity_IC50 [5]: 7.2 nM
EC50 (read off the curve) [6]: ~7 ng/mL
koff [7]: 0.0001 s⁻¹
kon [7]: 160000 M⁻¹ s⁻¹
koff [8]: 0.00029 s⁻¹
kon [8]: 110000 M⁻¹ s⁻¹
Kd [9]: 0.63 nM
Kd [10]: 2.6 nM
B1: 41H8 antibody (antibody, IgG1, V domains shown)
VH: QVTLKESGPGILQPSQTLSLTCSFSGFSLSTYGMGVGWIRQPSGKGLEWLAHIWWNENKYYNTDLKSRLTISKDTSNNQVFLKIASVDTADTATYYCARIGPGVPFDYWGQGTTITVSS
VL: DIQMTQSPSSLSASLGGKVTITCKASQDINKFIAWYQHKPGKGPRLLIHYTSTLQPGIPSRFNGSGSGRDYSFTISNLEPEDIATYYCLQYDILTWTFGGGTKLEIK
